B1: r-Antidote (fXa derivative, cleaved two-chain polypeptide of SEQ ID NO: 2) (enzyme)
light: ANSFLFWNKYKDGDQCETSPCQNQGKCKDGLGEYTCTCLEGFEGKNCELFTRKLCSLDNGDCDQFCHEEQNSVVCSCARGYTLADNGKACIPTGPYPCGKQTLER
heavy: IVGGQECKDGECPWQALLINEENEGFCGGTILSEFYILTAAHCLYQAKRFKVRVGDRNTEQEEGGEAVHEVEVVIKHNRFTKETYDFDIAVLRLKTPITFRMNVAPACLPERDWAESTLMTQKTGIVSGFGRTHEKGRQSTRLKMLEVPYVDRNSCKLSSSFIITQNMFCAGYDTKQEDACQGDAGGPHVTRFKDTYFVTGIVSWGEGCARKGKYGIYTKVTAFLKWIDRSMKTRGLPKAKSHAPEVITSSPLK
notes: Made in CHO cells; the two chains are linked by a disulfide bond; also called target protein; functional protein
B2: Soybean Trypsin Inhibitor (STI), immobilised on affinity resin (other, Glycine max (soybean), UniProt P01070 25-205, looked up)
chain: DFVLDNEGNPLENGGTYYILSDITAFGGIRAAPTGNERCPLTVVQSRNELDKGIGTIISSPYRIRFIAEGHPLSLKFDSFAVIMLCVGIPTEWSVVEDLPEGPAVKIGENKDAMDGWFRLERVSDDEFNNYKLVFCPQQAEDDKCGDIGISIDHDDGTRRLVVSKNKPLVVQFQKLDKESL
notes: also called STI-Agarose

Experiments:
[1] = biological target: Aprotinin, immobilised on agarose (Aprotinin-Agarose, catalog #A2268) (UniProt P00974 36-93); experiment: affinity column loading, 1 mL resin, 20 mM Tris/150 mM NaCl pH 7.4
Procedure: Commercially available affinity resins were screened for their efficacy in purifying r-Antidote. Various affinity resins were packed into a column (such as a Tricorn column, GE) with 1 mL of resin. Following sanitization according to manufacturer's recommendations, the column was equilibrated with 20 mM Tris/150 mM NaCl at pH 7.4, followed by testing their ability to bind r-Antidote in the same buffer. r-Antidote at a concentration of 0.145 mg/mL in PBS (Phosphate Buffered Saline), was loaded onto the column at a flow rate of 1 mL/min by injection (1 mL).

[2] = biological target: B1; experiment: affinity column loading of purified r-Antidote, 1 mL resin, 20 mM Tris/150 mM NaCl pH 7.4

binding result [2] | Binder | binding result [1]
 | B1 | no binding (tested: 0.145 mg/mL (1 mL injected))
binds | B2 | 
